# According to article PMC6882821, “Production of recombinant soluble dimeric C-type lectin-like receptors of rat natural killer cells” (Scientific Reports, 2019):
# B1: NKR-P1B^WAG V78-S223, histidine-tagged, expressed from pHLsec (domain or fragment, rat (WAG strain))
# chain: ETGVQENRTKTTDSPTKLKCPKDWHSHQDKCFHVSQAPNTWNKSLADCGGKGATLLLIQDQEELRFLRNLTKGKDRSFWIGLNYTLPDKNWKWINSSTLNSDVLSIFGDTKQNSCASISQDKVLSESCDSDNLWICQKELKCECMCNGS
# notes: residues that the pHLsec vector adds to the N-terminus of the construct; rat NKR-P1B of the WAG strain, extracellular part with slightly shortened N-terminus, V78-S223; source: suspension-adapted HEK293T, transiently transfected, secreted, culture supernatant
# B2: NKR-P1B^WAG ectodomain cleaved from the pYD5 Fc fusion by TEV protease (domain or fragment, rat (WAG strain), UniProt Q5NKN4 78-223, looked up)
# chain: VQENRTKTTDSPTKLKCPKDWHSHQDKCFHVSQAPNTWNKSLADCGGKGATLLLIQDQEELRFLRNLTKGKDRSFWIGLNYTLPDKNWKWINSSTLNSDVLSIFGDTKQNSCASISQDKVLSESCDSDNLWICQKELKCECMCNGS
# notes: rat NKR-P1B of the WAG strain, ectodomain construct V78-S223; Disulphide dimer; also called pYD5_NKR-P1B^WAG cleaved off by TEV protease; not shown: Fc (human IgG), N-terminal, cleaved
# B3: NKR-P1B^SD ectodomain cleaved from the pYD5 Fc fusion by TEV protease (domain or fragment, rat (SD strain), UniProt A4KWA1 78-223, looked up)
# chain: VQENRTKTTDSPAKLKCPKDWHSHQDKCFHVSQTSITWKGSLADCGGKGATLLLVQDQEELRFLRNLTKRISSSFWIGLSYTLSDEKWKWINGSTLNSDALNITGDTEKDSCASVSQDKVLSESCDSDNIWICQKELKRESTCNDS
# notes: rat NKR-P1B of the SD strain, ectodomain construct V78-S223; Obtained as a separable mixture of monomer and covalent dimer; also called pYD5_NKR-P1B^SD (monomeric and dimeric fractions); not shown: Fc (human IgG), N-terminal, cleaved
# Tests used:
# [1] = target: Clr-11-FcHis fusion protein (Clr-11^WAG in pHLsec-FcHis, uncleaved) (rat (WAG strain) | human) (UniProt Q0H8B9); assay: SEC; gel filtration on Superdex 200 HR 10/30, room temperature
# [2] = target: Clr-11-FcHis fusion protein (Clr-11^WAG in pHLsec-FcHis, uncleaved) (rat (WAG strain) | human) (UniProt Q0H8B9); assay: AUC; sedimentation velocity, 0.2 mg/ml, 48000 rpm, 20 °C, 10 mM HEPES pH 7.0, 150 mM NaCl, 10 mM NaN3, c(s) model
# [3] = target: Clr-11^WAG V65-M207, histidine-tagged, expressed from pHLsec (rat (WAG strain)) (UniProt Q0H8B9); assay: SEC; gel filtration on Superdex 200 HR 10/30, room temperature
# [4] = target: Clr-11^WAG V65-M207, histidine-tagged, expressed from pHLsec (rat (WAG strain)) (UniProt Q0H8B9); assay: AUC; sedimentation velocity, 0.2 mg/ml, 48000 rpm, 20 °C, 10 mM HEPES pH 7.0, 150 mM NaCl, 10 mM NaN3, c(s) model
# [5] = target: Clr-11^WAG V65-M207, histidine-tagged, expressed from pHLsec (rat (WAG strain)) (UniProt Q0H8B9); assay: non-reducing SDS-PAGE with Western blot; small-scale expression test; 10 ul of culture supernatant 3 days after transfection, 15% SDS-PAGE under non-reducing conditions, detected by PentaHis mAb; shows covalent dimers
# [6] = target: Clr-11^WAG V65-M207, histidine-tagged, expressed from pHLsec (rat (WAG strain)) (UniProt Q0H8B9); assay: AUC; sedimentation equilibrium, 0.1 mg/ml, 12-15-18-21-24000 rpm, 4 °C, non-interacting discrete species model
# [7] = target: Clr-11^WAG cleaved from the pHLsec-FcHis fusion by HRV 3C protease (rat (WAG strain)) (UniProt Q0H8B9); assay: SEC; gel filtration on Superdex 200 HR 10/30, room temperature
# [8] = target: Clr-11^WAG cleaved from the pHLsec-FcHis fusion by HRV 3C protease (rat (WAG strain)) (UniProt Q0H8B9); assay: AUC; sedimentation velocity, 0.2 mg/ml, 48000 rpm, 20 °C, 10 mM HEPES pH 7.0, 150 mM NaCl, 10 mM NaN3, c(s) model
# [9] = target: NKR-P1B^SD C-terminal FcHis fusion protein (pHLsec-FcHis, uncleaved) (rat (SD strain) | human) (UniProt A4KWA1); assay: not stated; data not shown; purified C-terminal FcHis fusion proteins
# [10] = target: NKR-P1B^WAG C-terminal FcHis fusion protein (pHLsec-FcHis, uncleaved) (rat (WAG strain) | human) (UniProt Q5NKN4); assay: as above
# [11] = target: pYD5 Fc-NKR-P1B^SD fusion protein (uncleaved) (human | rat (SD strain)) (UniProt A4KWA1); assay: SEC; gel filtration on Superdex 200 HR 10/30, room temperature
# [12] = target: pYD5 Fc-NKR-P1B^SD fusion protein (uncleaved) (human | rat (SD strain)) (UniProt A4KWA1); assay: AUC; sedimentation velocity, 0.2 mg/ml, 48000 rpm, 20 °C, 10 mM HEPES pH 7.0, 150 mM NaCl, 10 mM NaN3, c(s) model
# [13] = target: pYD5 Fc-NKR-P1B^WAG fusion protein (uncleaved) (human | rat (WAG strain)) (UniProt Q5NKN4); assay: SEC; gel filtration on Superdex 200 HR 10/30, room temperature
# [14] = target: pYD5 Fc-NKR-P1B^WAG fusion protein (uncleaved) (human | rat (WAG strain)) (UniProt Q5NKN4); assay: AUC; sedimentation velocity, 0.2 mg/ml, 48000 rpm, 20 °C, 10 mM HEPES pH 7.0, 150 mM NaCl, 10 mM NaN3, c(s) model
# [15] = target: the molecule itself; assay: non-reducing SDS-PAGE with Western blot; small-scale expression test; 10 ul of culture supernatant 3 days after transfection, 15% SDS-PAGE under non-reducing conditions, detected by PentaHis mAb; shows covalent dimers
# [16] = target: the molecule itself; assay: SEC + other: non-reducing SDS-PAGE; gel filtration on Superdex 200 HR 10/30 after TEV cleavage, and 4-20% SDS-PAGE under reducing and non-reducing conditions
molecule,measurement,setting,value
"Clr-11-FcHis fusion protein (Clr-11^WAG in pHLsec-FcHis, uncleaved) (from UniProt Q0H8B9 65-207) (Fc fusion)",stoichiometry N,[1],2
same,stoichiometry N,[2],2
"Clr-11^WAG V65-M207, histidine-tagged, expressed from pHLsec (from UniProt Q0H8B9 65-207) (domain or fragment)",stoichiometry N,[3],2
same,stoichiometry N,[4],2
same,stoichiometry N,[5],2
same,stoichiometry N,[6],2
Clr-11^WAG cleaved from the pHLsec-FcHis fusion by HRV 3C protease (from UniProt Q0H8B9 65-207) (domain or fragment),stoichiometry N,[7],2
same,stoichiometry N,[8],2
"NKR-P1B^SD C-terminal FcHis fusion protein (pHLsec-FcHis, uncleaved) (from UniProt A4KWA1 78-223) (Fc fusion)",stoichiometry N,[9],2
"NKR-P1B^WAG C-terminal FcHis fusion protein (pHLsec-FcHis, uncleaved) (from UniProt Q5NKN4 78-223) (Fc fusion)",stoichiometry N,[10],2
pYD5 Fc-NKR-P1B^SD fusion protein (uncleaved) (from UniProt A4KWA1 78-223) (Fc fusion),stoichiometry N,[11],2
same,stoichiometry N,[12],2
pYD5 Fc-NKR-P1B^WAG fusion protein (uncleaved) (from UniProt Q5NKN4 78-223) (Fc fusion),stoichiometry N,[13],2
same,stoichiometry N,[14],2
B1,stoichiometry N,[15],2
B2,stoichiometry N,[16],2
B3,stoichiometry N,[16],2
